Results taken from the MegaScale stability set (Tsuboyama et al. 2023).

B1: 5KPH (parent)
chain: EEKRQVKQVAKEKLLEQSPNSKVQVRRVQKQGNTIRVELELRTNGKKENYTVEVERQGNTWTVKRITRT

Variants of: B1
Test: folding stability dG (cDNA display proteolysis); higher = more stable
Conditions: PBS, room temperature

Variant	folding stability dG
EEKRQVKQVAKEKLLEQSPNSKVQVRRVQKVGNTIRVELELRTNGKKENYTVEVERQGNTWTVKRITRT [Q31V]	4.25 kcal/mol
EEKRQVKQVAKEKLLEQSPNSKVQVRRVQKWGNTIRVELELRTNGKKENYTVEVERQGNTWTVKRITRT [Q31W]	4.41 kcal/mol
EEKRQVKQVAKEKLLEQSPNSKVQVRRVQKYGNTIRVELELRTNGKKENYTVEVERQGNTWTVKRITRT [Q31Y]	4.34 kcal/mol
EEKRQVKQVAKEKLLEQSPNSKVQVRRVQKQANTIRVELELRTNGKKENYTVEVERQGNTWTVKRITRT [G32A]	3.18 kcal/mol
EEKRQVKQVAKEKLLEQSPNSKVQVRRVQKQCNTIRVELELRTNGKKENYTVEVERQGNTWTVKRITRT [G32C]	3.07 kcal/mol
EEKRQVKQVAKEKLLEQSPNSKVQVRRVQKQDNTIRVELELRTNGKKENYTVEVERQGNTWTVKRITRT [G32D]	3.3 kcal/mol
EEKRQVKQVAKEKLLEQSPNSKVQVRRVQKQENTIRVELELRTNGKKENYTVEVERQGNTWTVKRITRT [G32E]	3.1 kcal/mol
EEKRQVKQVAKEKLLEQSPNSKVQVRRVQKQFNTIRVELELRTNGKKENYTVEVERQGNTWTVKRITRT [G32F]	3.33 kcal/mol
EEKRQVKQVAKEKLLEQSPNSKVQVRRVQKQHNTIRVELELRTNGKKENYTVEVERQGNTWTVKRITRT [G32H]	3.14 kcal/mol
EEKRQVKQVAKEKLLEQSPNSKVQVRRVQKQINTIRVELELRTNGKKENYTVEVERQGNTWTVKRITRT [G32I]	2.67 kcal/mol
EEKRQVKQVAKEKLLEQSPNSKVQVRRVQKQKNTIRVELELRTNGKKENYTVEVERQGNTWTVKRITRT [G32K]	3.11 kcal/mol
EEKRQVKQVAKEKLLEQSPNSKVQVRRVQKQLNTIRVELELRTNGKKENYTVEVERQGNTWTVKRITRT [G32L]	3.09 kcal/mol
EEKRQVKQVAKEKLLEQSPNSKVQVRRVQKQMNTIRVELELRTNGKKENYTVEVERQGNTWTVKRITRT [G32M]	2.99 kcal/mol
EEKRQVKQVAKEKLLEQSPNSKVQVRRVQKQNNTIRVELELRTNGKKENYTVEVERQGNTWTVKRITRT [G32N]	3.26 kcal/mol
EEKRQVKQVAKEKLLEQSPNSKVQVRRVQKQPNTIRVELELRTNGKKENYTVEVERQGNTWTVKRITRT [G32P]	2.45 kcal/mol
EEKRQVKQVAKEKLLEQSPNSKVQVRRVQKQQNTIRVELELRTNGKKENYTVEVERQGNTWTVKRITRT [G32Q]	3.04 kcal/mol
EEKRQVKQVAKEKLLEQSPNSKVQVRRVQKQRNTIRVELELRTNGKKENYTVEVERQGNTWTVKRITRT [G32R]	3.03 kcal/mol
EEKRQVKQVAKEKLLEQSPNSKVQVRRVQKQSNTIRVELELRTNGKKENYTVEVERQGNTWTVKRITRT [G32S]	2.97 kcal/mol
EEKRQVKQVAKEKLLEQSPNSKVQVRRVQKQTNTIRVELELRTNGKKENYTVEVERQGNTWTVKRITRT [G32T]	2.6 kcal/mol
EEKRQVKQVAKEKLLEQSPNSKVQVRRVQKQVNTIRVELELRTNGKKENYTVEVERQGNTWTVKRITRT [G32V]	2.74 kcal/mol
EEKRQVKQVAKEKLLEQSPNSKVQVRRVQKQWNTIRVELELRTNGKKENYTVEVERQGNTWTVKRITRT [G32W]	3.21 kcal/mol
EEKRQVKQVAKEKLLEQSPNSKVQVRRVQKQYNTIRVELELRTNGKKENYTVEVERQGNTWTVKRITRT [G32Y]	3.13 kcal/mol
EEKRQVKQVAKEKLLEQSPNSKVQVRRVQKQGATIRVELELRTNGKKENYTVEVERQGNTWTVKRITRT [N33A]	3.79 kcal/mol
EEKRQVKQVAKEKLLEQSPNSKVQVRRVQKQGCTIRVELELRTNGKKENYTVEVERQGNTWTVKRITRT [N33C]	3.22 kcal/mol
EEKRQVKQVAKEKLLEQSPNSKVQVRRVQKQGDTIRVELELRTNGKKENYTVEVERQGNTWTVKRITRT [N33D]	3.9 kcal/mol
EEKRQVKQVAKEKLLEQSPNSKVQVRRVQKQGETIRVELELRTNGKKENYTVEVERQGNTWTVKRITRT [N33E]	3.68 kcal/mol

Variant	folding stability dG
EEKRQVKQVAKEKLLEQSPNSKVQVRRVQKQGFTIRVELELRTNGKKENYTVEVERQGNTWTVKRITRT [N33F]	3.67 kcal/mol
EEKRQVKQVAKEKLLEQSPNSKVQVRRVQKQGGTIRVELELRTNGKKENYTVEVERQGNTWTVKRITRT [N33G]	3.58 kcal/mol
EEKRQVKQVAKEKLLEQSPNSKVQVRRVQKQGHTIRVELELRTNGKKENYTVEVERQGNTWTVKRITRT [N33H]	3.53 kcal/mol
EEKRQVKQVAKEKLLEQSPNSKVQVRRVQKQGITIRVELELRTNGKKENYTVEVERQGNTWTVKRITRT [N33I]	3.38 kcal/mol
EEKRQVKQVAKEKLLEQSPNSKVQVRRVQKQGKTIRVELELRTNGKKENYTVEVERQGNTWTVKRITRT [N33K]	3.75 kcal/mol
EEKRQVKQVAKEKLLEQSPNSKVQVRRVQKQGLTIRVELELRTNGKKENYTVEVERQGNTWTVKRITRT [N33L]	3.58 kcal/mol
EEKRQVKQVAKEKLLEQSPNSKVQVRRVQKQGMTIRVELELRTNGKKENYTVEVERQGNTWTVKRITRT [N33M]	3.74 kcal/mol
EEKRQVKQVAKEKLLEQSPNSKVQVRRVQKQGPTIRVELELRTNGKKENYTVEVERQGNTWTVKRITRT [N33P]	3.55 kcal/mol
EEKRQVKQVAKEKLLEQSPNSKVQVRRVQKQGQTIRVELELRTNGKKENYTVEVERQGNTWTVKRITRT [N33Q]	3.71 kcal/mol
EEKRQVKQVAKEKLLEQSPNSKVQVRRVQKQGRTIRVELELRTNGKKENYTVEVERQGNTWTVKRITRT [N33R]	3.74 kcal/mol
EEKRQVKQVAKEKLLEQSPNSKVQVRRVQKQGSTIRVELELRTNGKKENYTVEVERQGNTWTVKRITRT [N33S]	3.88 kcal/mol
EEKRQVKQVAKEKLLEQSPNSKVQVRRVQKQGTTIRVELELRTNGKKENYTVEVERQGNTWTVKRITRT [N33T]	3.82 kcal/mol
EEKRQVKQVAKEKLLEQSPNSKVQVRRVQKQGVTIRVELELRTNGKKENYTVEVERQGNTWTVKRITRT [N33V]	3.4 kcal/mol
EEKRQVKQVAKEKLLEQSPNSKVQVRRVQKQGWTIRVELELRTNGKKENYTVEVERQGNTWTVKRITRT [N33W]	3.36 kcal/mol
EEKRQVKQVAKEKLLEQSPNSKVQVRRVQKQGYTIRVELELRTNGKKENYTVEVERQGNTWTVKRITRT [N33Y]	3.5 kcal/mol
EEKRQVKQVAKEKLLEQSPNSKVQVRRVQKQGNAIRVELELRTNGKKENYTVEVERQGNTWTVKRITRT [T34A]	3.62 kcal/mol
EEKRQVKQVAKEKLLEQSPNSKVQVRRVQKQGNCIRVELELRTNGKKENYTVEVERQGNTWTVKRITRT [T34C]	3.48 kcal/mol
EEKRQVKQVAKEKLLEQSPNSKVQVRRVQKQGNDIRVELELRTNGKKENYTVEVERQGNTWTVKRITRT [T34D]	2.93 kcal/mol
EEKRQVKQVAKEKLLEQSPNSKVQVRRVQKQGNEIRVELELRTNGKKENYTVEVERQGNTWTVKRITRT [T34E]	2.99 kcal/mol
EEKRQVKQVAKEKLLEQSPNSKVQVRRVQKQGNFIRVELELRTNGKKENYTVEVERQGNTWTVKRITRT [T34F]	3.81 kcal/mol
EEKRQVKQVAKEKLLEQSPNSKVQVRRVQKQGNGIRVELELRTNGKKENYTVEVERQGNTWTVKRITRT [T34G]	3.44 kcal/mol
EEKRQVKQVAKEKLLEQSPNSKVQVRRVQKQGNHIRVELELRTNGKKENYTVEVERQGNTWTVKRITRT [T34H]	3.57 kcal/mol
EEKRQVKQVAKEKLLEQSPNSKVQVRRVQKQGNIIRVELELRTNGKKENYTVEVERQGNTWTVKRITRT [T34I]	3.97 kcal/mol
EEKRQVKQVAKEKLLEQSPNSKVQVRRVQKQGNKIRVELELRTNGKKENYTVEVERQGNTWTVKRITRT [T34K]	3.4 kcal/mol
EEKRQVKQVAKEKLLEQSPNSKVQVRRVQKQGNLIRVELELRTNGKKENYTVEVERQGNTWTVKRITRT [T34L]	3.96 kcal/mol
EEKRQVKQVAKEKLLEQSPNSKVQVRRVQKQGNMIRVELELRTNGKKENYTVEVERQGNTWTVKRITRT [T34M]	3.85 kcal/mol

Variant	folding stability dG
EEKRQVKQVAKEKLLEQSPNSKVQVRRVQKQGNNIRVELELRTNGKKENYTVEVERQGNTWTVKRITRT [T34N]	3.44 kcal/mol
EEKRQVKQVAKEKLLEQSPNSKVQVRRVQKQGNPIRVELELRTNGKKENYTVEVERQGNTWTVKRITRT [T34P]	2.41 kcal/mol
EEKRQVKQVAKEKLLEQSPNSKVQVRRVQKQGNQIRVELELRTNGKKENYTVEVERQGNTWTVKRITRT [T34Q]	3.38 kcal/mol
EEKRQVKQVAKEKLLEQSPNSKVQVRRVQKQGNRIRVELELRTNGKKENYTVEVERQGNTWTVKRITRT [T34R]	3.63 kcal/mol
EEKRQVKQVAKEKLLEQSPNSKVQVRRVQKQGNSIRVELELRTNGKKENYTVEVERQGNTWTVKRITRT [T34S]	3.59 kcal/mol
EEKRQVKQVAKEKLLEQSPNSKVQVRRVQKQGNVIRVELELRTNGKKENYTVEVERQGNTWTVKRITRT [T34V]	4.08 kcal/mol
EEKRQVKQVAKEKLLEQSPNSKVQVRRVQKQGNWIRVELELRTNGKKENYTVEVERQGNTWTVKRITRT [T34W]	3.65 kcal/mol
EEKRQVKQVAKEKLLEQSPNSKVQVRRVQKQGNYIRVELELRTNGKKENYTVEVERQGNTWTVKRITRT [T34Y]	3.92 kcal/mol
EEKRQVKQVAKEKLLEQSPNSKVQVRRVQKQGNTARVELELRTNGKKENYTVEVERQGNTWTVKRITRT [I35A]	3.73 kcal/mol
EEKRQVKQVAKEKLLEQSPNSKVQVRRVQKQGNTCRVELELRTNGKKENYTVEVERQGNTWTVKRITRT [I35C]	3.39 kcal/mol
EEKRQVKQVAKEKLLEQSPNSKVQVRRVQKQGNTDRVELELRTNGKKENYTVEVERQGNTWTVKRITRT [I35D]	1.2 kcal/mol
EEKRQVKQVAKEKLLEQSPNSKVQVRRVQKQGNTERVELELRTNGKKENYTVEVERQGNTWTVKRITRT [I35E]	1.93 kcal/mol
EEKRQVKQVAKEKLLEQSPNSKVQVRRVQKQGNTFRVELELRTNGKKENYTVEVERQGNTWTVKRITRT [I35F]	4.81 kcal/mol
EEKRQVKQVAKEKLLEQSPNSKVQVRRVQKQGNTGRVELELRTNGKKENYTVEVERQGNTWTVKRITRT [I35G]	2.57 kcal/mol
EEKRQVKQVAKEKLLEQSPNSKVQVRRVQKQGNTHRVELELRTNGKKENYTVEVERQGNTWTVKRITRT [I35H]	4.15 kcal/mol
EEKRQVKQVAKEKLLEQSPNSKVQVRRVQKQGNTKRVELELRTNGKKENYTVEVERQGNTWTVKRITRT [I35K]	1.48 kcal/mol
EEKRQVKQVAKEKLLEQSPNSKVQVRRVQKQGNTLRVELELRTNGKKENYTVEVERQGNTWTVKRITRT [I35L]	3.71 kcal/mol
EEKRQVKQVAKEKLLEQSPNSKVQVRRVQKQGNTMRVELELRTNGKKENYTVEVERQGNTWTVKRITRT [I35M]	4.13 kcal/mol
EEKRQVKQVAKEKLLEQSPNSKVQVRRVQKQGNTNRVELELRTNGKKENYTVEVERQGNTWTVKRITRT [I35N]	2.81 kcal/mol
EEKRQVKQVAKEKLLEQSPNSKVQVRRVQKQGNTPRVELELRTNGKKENYTVEVERQGNTWTVKRITRT [I35P]	0.813 kcal/mol
EEKRQVKQVAKEKLLEQSPNSKVQVRRVQKQGNTQRVELELRTNGKKENYTVEVERQGNTWTVKRITRT [I35Q]	2.79 kcal/mol
EEKRQVKQVAKEKLLEQSPNSKVQVRRVQKQGNTRRVELELRTNGKKENYTVEVERQGNTWTVKRITRT [I35R]	2.6 kcal/mol
EEKRQVKQVAKEKLLEQSPNSKVQVRRVQKQGNTSRVELELRTNGKKENYTVEVERQGNTWTVKRITRT [I35S]	3.37 kcal/mol
EEKRQVKQVAKEKLLEQSPNSKVQVRRVQKQGNTTRVELELRTNGKKENYTVEVERQGNTWTVKRITRT [I35T]	3.82 kcal/mol
EEKRQVKQVAKEKLLEQSPNSKVQVRRVQKQGNTVRVELELRTNGKKENYTVEVERQGNTWTVKRITRT [I35V]	3.81 kcal/mol
EEKRQVKQVAKEKLLEQSPNSKVQVRRVQKQGNTIAVELELRTNGKKENYTVEVERQGNTWTVKRITRT [R36A]	3.64 kcal/mol
